Here are results for nine molecules from patent US20170253670A1 (Hoffmann-La Roche, published 2017).

Read-outs that look alike come from different tables or passages of the source.

In assay [1] the target is T1, human FolR1 on cells (HeLa, SKOV3, HT-29, transfected HEK) (human, UniProt P15328 25-234). The experiment in a line: cell-based or functional assay.
Assay [2] deals with T2, cyno FolR1 on transiently transfected HEK cells (cynomolgus).
T2 construct: whole, on cells; also called cyFolR1
Kind of assay: flow cytometry on HEK cells transiently transfected with cyno FolR1, fluorescently labeled anti-human secondary antibody. The method, then: Cross-reactivity of the FolR1 antibodies to cyno FolR1 was addressed on HEK cells transiently transfected with cyFolR1 by flow cytometry. The antibodies were detected with a fluorescently labeled anti-human secondary antibody.
(§1) Target cells as indicated were harvested with Cell Dissociation Buffer, washed with PBS and resuspended in FACS buffer. The antibody staining was performed in a 96well round bottom plate. Therefore 200′000 cells were seeded per well. The plate was centrifuged for 4 min at 400 g and the supernatant was removed. The test antibodies were diluted in FACS buffer and 20 μl of the antibody solution were added to the cells for 30 min at 4° C.

Assay [3] deals with T3, recombinant murine BCMA Fc(kih) (murine, UniProt O88472 2-49, biotinylated at the avi-tag of the Fc knob chain (not in the letters)).
T3 construct: also called muBCMA Fc(kih); not shown: human IgG1 hinge-Fc(knob)-avi and the unfused Fc(hole) chain
T3 chain: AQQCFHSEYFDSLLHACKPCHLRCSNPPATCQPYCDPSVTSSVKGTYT
The experiment in a line: SPR Biacore, binder captured via anti-Fab, BCMA-Fc analyte.

Assay [4] has as its target T4, recombinant human BCMA Fc(kih) (human, UniProt Q02223 4-53, biotin on avi-tag where coupled to SA chip ; biotin on the avi-tag of the Fc-knob chain where coupled to the SA chip (tag not in the letters)).
T4 construct: also called huBCMA Fc(kih); huBCMA; not shown: human IgG1 hinge-Fc(knob)-avi fused to the ECD, and the unfused Fc(hole) chain
T4 chain: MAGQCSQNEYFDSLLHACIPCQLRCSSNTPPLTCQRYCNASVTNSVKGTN
The description is as above.

In assay [5] the target is T4, recombinant human BCMA Fc(kih). The experiment in a line: SPR Biacore, bivalent avidity, BCMA-Fc on chip (Experiment 3). On the procedure: (§2) Assessment of binding of anti-BCMA antibodies to recombinant BCMA by surface plasmon resonance (SPR) as follow. All SPR experiments were performed on a Biacore T200 at 25° C. with HBS-EP as running buffer (0.01 M HEPES pH 7.4, 0.15 M NaCl, 3 mM EDTA, 0.005% Surfactant P20, Biacore, Freiburg/Germany). The avidity of the interaction between anti-BCMA antibodies and recombinant BCMA Fc(kih) (human, cynomolgus and murine) was determined (Tables 38-40). Biotinylated recombinant human, cynomolgus and murine BCMA Fc(kih) were directly coupled on a SA chip following instructions (Biacore, Freiburg/Germany). The immobilization level ranged from 80 to 120 RU. […] The dissociation was monitored for 180 seconds. Bulk refractive index differences were corrected for by subtracting the response obtained on the reference flow cell. Here, the anti-BCMA antibodies were flown over an empty surface previously activated and deactivated as described in the standard amine coupling kit. Apparent kinetic constants were derived using the Biacore T200 Evaluation Software (v 1.0, Biacore AB, Uppsala/Sweden), to fit rate equations for 1:1 Langmuir binding by numerical integration, despite the bivalency of the interaction for comparison purposes.

Assay [6] shares this target. Kind of assay: SPR Biacore, bivalent avidity, BCMA-Fc on chip (Experiment 2). The method, then:
as §2

In assay [7] the target is T1, human FolR1 on cells (HeLa, SKOV3, …). Kind of assay: cell-based or functional assay. This is another data set of the same source.
Assay [8] shares this target. Kind of assay: flow cytometry, HeLa cells. The method, then:
as §1

The target is the same in assay [9]. Kind of assay: cell-based or functional assay. This is another data set of the same source.
For assay [10] the target is unchanged. The experiment in a line: flow cytometry on HeLa cells, fluorescently labeled anti-human secondary antibody.
Assay [11] deals with T5, MUC1 SEA-avi-His, biotinylated (human, biotin on avi tag).
T5 construct: E. coli derived; also called MUC1 antigen; SEA domain of human MUC1
T5 chain: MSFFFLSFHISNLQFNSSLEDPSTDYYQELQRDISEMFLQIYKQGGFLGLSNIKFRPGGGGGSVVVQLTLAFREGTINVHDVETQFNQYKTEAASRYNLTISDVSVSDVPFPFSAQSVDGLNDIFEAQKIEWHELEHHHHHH
Kind of assay: SPR (ProteOn XPR36), biotinylated MUC1 on NLC chip, TCB as analyte. On the procedure: Binding of the produced MUC1-specific TCBs was measured by surface plasmon resonance using a ProteOn XPR36 instrument (Biorad) at 25° C. Biotinylated MUC1 antigen and an unrelated biotinylated antigen were immobilized on NLC chips by neutravidin capture. Immobilization of the antigens was performed as described before. […] Buffer (PBST) was injected along the sixth channel to provide an “in-line” blank for referencing.
Regeneration was performed in horizontal orientation using 10 mM Glycine, pH 1.5 at a flow rate of 100 ul/min for a contact time of 30 s.

By EC50 (read off the curve) is commonly meant the concentration at which the effect is half-maximal. A higher EC50 (read off the curve) goes with weaker potency. What is called EC50 is the concentration that produces a half-maximal response. Read a low EC50 as greater potency.

T1 sequence (P15328 25-234): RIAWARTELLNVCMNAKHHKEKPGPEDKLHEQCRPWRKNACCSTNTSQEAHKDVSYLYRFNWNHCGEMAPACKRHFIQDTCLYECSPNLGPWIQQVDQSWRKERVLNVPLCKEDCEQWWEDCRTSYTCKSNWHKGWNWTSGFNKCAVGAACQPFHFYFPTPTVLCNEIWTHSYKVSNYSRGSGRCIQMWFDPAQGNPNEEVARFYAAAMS

B1: 9D11 TCB S100aA (bispecific antibody, human IgG1, kappa, L234A L235A)
heavy 1: not shown
heavy 2: QVQLVQSGAEVKKPGASVKVSCKASGYTFTSYYMHWVRQAPGQGLEWMGIINPSGGPTSYAQKFQGRVTMTRDTSTSTVYMELSSLRSEDTAVYYCARGDFAWLDYWGQGTLVTVSSASTKGPSVFPLAPSSKSTSGGTAALGCLVKDYFPEPVTVSWNSGALTSGVHTFPAVLQSSGLYSLSSVVTVPSSSLGTQTYICNVNHKPSNTKVDKKVEPKSCDKTHTCPPCPAPEAAGGPSVFLFPPKPKDTLMISRTPEVTCVVVDVSHEDPEVKFNWYVDGVEVHNAKTKPREEQYNSTYRVVSVLTVLHQDWLNGKEYKCKVSNKALGAPIEKTISKAKGQPREPQVCTLPPSRDELTKNQVSLSCAVKGFYPSDIAVEWESNGQPENNYKTTPPVLDSDGSFFLVSKLTVDKSRWQQGNVFSCSVMHEALHNHYTQKSLSLSPGK
light 1: not shown
light 2: QAVVTQEPSLTVSPGGTVTLTCGSSTGAVTTSNYANWVQEKPGQAFRGLIGGTNKRAPGTPARFSGSLLGGKAALTLSGAQPEDEAEYYCALWYSNLWVFGGGTKLTVLSSASTKGPSVFPLAPSSKSTSGGTAALGCLVKDYFPEPVTVSWNSGALTSGVHTFPAVLQSSGLYSLSSVVTVPSSSLGTQTYICNVNHKPSNTKVDKKVEPKSC
Regarding B1, in assay [1], the “EC50 killing 24 h, SKov-3” value amounted to 0.00194 nM.

B2: 21A5 IgG (antibody, V domains shown)
VH: not shown
VL: QAVVTQEPSLTVSPGGTVTLTCGSSTGAVTTSNYANWVQEKPGQAFRGLIGGTNKRAPGTPARFSGSLLGGKAALTLSGAQPEDEAEYYCALWYSNLWVFGGGTKLTVL
notes: human IgG1
For the molecule B2, the concentration giving a half-maximal response (EC50 (read off the curve)) in assay [2] is about 6 µg/mL.

B3: pSCHLI373 anti-BCMA IgG (antibody, V domains shown)
VH: EVQLVESGGGLVKPGGSLRLSCAASGFSFSNSWMNWVRQAPGKGLEWVGTIRQKTYGGTTDYAAPVKGRFTISRDDSKNTLYLQMNSLKTEDTAVYYCTTGGLFGYWDYWGQGTLVTVSS
VL: QAVVTQEPSLTVSPGGTVTLTCGSSTGAVTTSNYANWVQEKPGQAFRGLIGGTNKRAPGTPARFSGSLLGGKAALTLSGAQPEDEAEYYCALWYSNLWVFGGGTKLTVL
As to B3, the Kd in [3] amounted to 724 nM; in assay [4], 135 nM; in assay [5] it was 12.1 nM; in assay [6] it was 23 nM.

B4: 16D5 IgG (antibody, V domains shown)
VH: not shown
VL: QAVVTQEPSLTVSPGGTVTLTCGSSTGAVTTSNYANWVQEKPGQAFRGLIGGTNKRAPGTPARFSGSLLGGKAALTLSGAQPEDEAEYYCALWYSNLWVFGGGTKLTVL
notes: human IgG1
Turning to B4, in [2], the “EC50 (read off the curve)” value was about 7 µg/mL.

B5: Mov19 FolR1 TCB 2+1 inverted (bispecific antibody)
chain 1: not shown
chain 2: QVQLQQSGAELVKPGASVKISCKASGYSFTGYFMNWVKQSHGKSLEWIGRIHPYDGDTFYNQNFKDKATLTVDKSSNTAHMELLSLTSEDFAVYYCTRYDGSRAMDYWGQGTTVTVSSASTKGPSVFPLAPSSKSTSGGTAALGCLVKDYFPEPVTVSWNSGALTSGVHTFPAVLQSSGLYSLSSVVTVPSSSLGTQTYICNVNHKPSNTKVDKKVEPKSCDKTHTCPPCPAPEAAGGPSVFLFPPKPKDTLMISRTPEVTCVVVDVSHEDPEVKFNWYVDGVEVHNAKTKPREEQYNSTYRVVSVLTVLHQDWLNGKEYKCKVSNKALGAPIEKTISKAKGQPREPQVCTLPPSRDELTKNQVSLSCAVKGFYPSDIAVEWESNGQPENNYKTTPPVLDSDGSFFLVSKLTVDKSRWQQGNVFSCSVMHEALHNHYTQKSLSLSPGK
chain 3: DIELTQSPASLAVSLGQRAIISCKASQSVSFAGTSLMHWYHQKPGQQPKLLIYRASNLEAGVPTRFSGSGSKTDFTLNIHPVEEEDAATYYCQQSREYPYTFGGGTKLEIKRTVAAPSVFIFPPSDEQLKSGTASVVCLLNNFYPREAKVQWKVDNALQSGNSQESVTEQDSKDSTYSLSSTLTLSKADYEKHKVYACEVTHQGLSSPVTKSFNRGEC
Take B5: in assay [7], the “EC50 killing 24 h, SKov-3” value was found to be 0.00075 nM and the “EC50 killing 48 h, SKov-3” value is 0.05 pM.

B6: 9D11 FolR1 TCB 1+1 head-to-tail (crossfab) (bispecific antibody, V domains shown)
VH: QVQLVQSGAEVKKPGASVKVSCKASGYTFTSYYMHWVRQAPGQGLEWMGIINPSGGPTSYAQKFQGRVTMTRDTSTSTVYMELSSLRSEDTAVYYCARGDFAWLDYWGQGTLVTVSS
VL: not shown
notes: 1+1 head-to-tail with CD3 CrossFab on the same arm
B6 returned an EC50 in assay [8] of 44.2 nM. The “EC50 killing 24 h (pM), SKOV3” value in [9] worked out at 4.73 pM.

B7: 14E4 IgG (antibody, V domains shown)
VH: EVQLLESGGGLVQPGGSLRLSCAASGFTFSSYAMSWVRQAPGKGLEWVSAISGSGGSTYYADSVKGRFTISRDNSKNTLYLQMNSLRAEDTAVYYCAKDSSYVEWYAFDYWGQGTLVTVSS
VL: EIVLTQSPGTLSLSPGERATLSCRASQSVSSSYLAWYQQKPGQAPRLLIYGASSRATGIPDRFSGSGSGTDSTLTISRLEPEDFAVYYCQQPTSSPITFGQGTKVEIK
notes: human IgG1
As to B7, in [10], the binding result is “no binding (tested: 50 µg/ml)”.

B8: 58D6 MUC1-specific CLC TCB (bispecific antibody)
heavy 1: not shown
heavy 2: not shown
light: QAVVTQEPSLTVSPGGTVTLTCGSSTGAVTTSNYANWVQEKPGQAFRGLIGGTNKRAPGTPARFSGSLLGGKAALTLSGAQPEDEAEYYCALWYSNLWVFGGGTKLTVLRTQPKAAPSVTLFPPSSEELQANKATLVCLISDFYPGAVTVAWKADSSPVKAGVETTTPSKQSNNKYAASSYLSLTPEQWKSHRSYSCQVTHEGSTVEKTVAPTECS
notes: also called 58D6 TCB
Turning to B8, in [11], the binding result is “binds”.

B9: 110A5 MUC1-specific CLC TCB (bispecific antibody)
heavy 1: not shown
heavy 2: not shown
light: QAVVTQEPSLTVSPGGTVTLTCGSSTGAVTTSNYANWVQEKPGQAFRGLIGGTNKRAPGTPARFSGSLLGGKAALTLSGAQPEDEAEYYCALWYSNLWVFGGGTKLTVLRTQPKAAPSVTLFPPSSEELQANKATLVCLISDFYPGAVTVAWKADSSPVKAGVETTTPSKQSNNKYAASSYLSLTPEQWKSHRSYSCQVTHEGSTVEKTVAPTECS
notes: also called 110A5 TCB
Regarding B9, the binding result in assay [11] is recorded as “binds”.
